Assay results published in US20200121803A1 (published 2020).
Residue numbers refer to the chain shown, from its start.

Columns and labels:
[1] = molecular target: T1, Human CD98, endogenous on HCC38, Molt-4 and Jurkat human cancer cells (human); experiment: cell-based or functional assay
T1 chain: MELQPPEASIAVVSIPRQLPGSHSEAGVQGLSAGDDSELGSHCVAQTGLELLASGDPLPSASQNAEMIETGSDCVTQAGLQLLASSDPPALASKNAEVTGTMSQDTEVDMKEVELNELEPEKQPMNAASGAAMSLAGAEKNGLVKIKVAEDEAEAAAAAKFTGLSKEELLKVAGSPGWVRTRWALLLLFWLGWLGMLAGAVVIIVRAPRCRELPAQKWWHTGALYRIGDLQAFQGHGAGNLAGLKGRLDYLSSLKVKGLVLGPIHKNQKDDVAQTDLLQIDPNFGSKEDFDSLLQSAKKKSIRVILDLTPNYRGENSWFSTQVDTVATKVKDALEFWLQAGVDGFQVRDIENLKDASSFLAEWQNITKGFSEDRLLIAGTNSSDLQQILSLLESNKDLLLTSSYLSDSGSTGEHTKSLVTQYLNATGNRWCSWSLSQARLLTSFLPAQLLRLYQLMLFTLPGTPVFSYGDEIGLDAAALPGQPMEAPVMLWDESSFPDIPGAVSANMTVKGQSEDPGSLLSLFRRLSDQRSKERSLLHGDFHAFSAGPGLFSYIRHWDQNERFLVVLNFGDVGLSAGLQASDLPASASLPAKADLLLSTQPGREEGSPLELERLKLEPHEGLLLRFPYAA

[2] = molecular target: T2, human CD98, endogenously expressed on Molt-4 human acute lymphoblastic leukemia cells (human); experiment: cell-based or functional assay
T2 chain: T1 chain

B1: Ab1-CZ (Ab1 conjugated to Bcl-xL inhibitor synthon CZ) (antibody, V domains shown)
VH: EVKLVESGGGLVQPGGSLRLSCATSGFTFTDYYMSWVRQPPGKALEWLGFIRNPANVYTTEYSASVKGRFTISRDNSQSILYLQMNTLRAEDSATYYCARASYGNSEGWFAYWGQGTLVTVSA
VL: DIVMSQSPSSLAVSVGEKVTMSCKSSQNLLYNNNQKNYLAWYQQKPGQSPKLLIYWASTRESGVPDRFTGSGSGTDFTLTISSVKAEDLAVYYCQQYYSYPRTFGGGTKLEIK
[1]
  ADC potency, IC50 (nM), HCC38 growth inhibition: 0.998 nM
  ADC potency, IC50 (nM), Jurkat growth inhibition: 0.05 nM
  ADC potency, IC50 (nM), Molt-4 growth inhibition: 0.053 nM

B2: Ab4-CZ (Ab4 conjugated to Bcl-xL inhibitor synthon CZ) (antibody, V domains shown)
VH: B1 VH with A23T, P54K, N56T, V57I
VL: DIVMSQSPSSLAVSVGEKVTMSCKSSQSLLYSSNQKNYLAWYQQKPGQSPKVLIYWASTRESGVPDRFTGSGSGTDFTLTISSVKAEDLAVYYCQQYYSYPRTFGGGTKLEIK
[1]
  ADC potency, IC50 (nM), HCC38 growth inhibition: 0.879 nM
  ADC potency, IC50 (nM), Jurkat growth inhibition: 0.371 nM
  ADC potency, IC50 (nM), Molt-4 growth inhibition: 0.127 nM

B3: Ab5-CZ (Ab5 conjugated to Bcl-xL inhibitor synthon CZ) (antibody, V domains shown)
VH: B1 VH with S35T, P54K, V57G, Q78L, G104V
VL: B1 VL with N28S, N32S, N33S, P46L, Q96H
[1]
  ADC potency, IC50 (nM), HCC38 growth inhibition: 0.728 nM
  ADC potency, IC50 (nM), Jurkat growth inhibition: 0.137 nM
  ADC potency, IC50 (nM), Molt-4 growth inhibition: 0.022 nM

B4: CD98 (CL-huAb104)-AAD (antibody, human IgG1, kappa, L234A L235A, V domains shown)
VH: EVQLVESGGGLVQPGGSLRLSCATSGFTFIDYYMSWVRQAPGKGLEWLGFIRNKAYGYTTEYSASVKGRFTISRDNSKSILYLQMNSLKTEDTAVYYCTRDRPAWFVYWGQGTLVTVSS
VL: DIVMTQTPLSLPVTPGEPASISCKSSQSLLYSSNQKNYLAWYLQKPGQSPQLLIYWASTRESGVPDRFSGSGSGTDFTLKISRVEAEDVGVYYCQQYYSYPYTFGGGTKVEIKR
modifications: synthon AAD on reduced interchain cysteines (sites not given)
[2]
  % Cell Viability at 50 nM: 2.5%
  Molt4 IC50: 0.028 nM

B5: CD98 (CL-huAb108)-AAD (antibody, human IgG1, kappa, L234A L235A, V domains shown)
VH: EVQLVQSGAEVKKPGASVKVSCKASGFTFSDYTMAWVRQAPGQGLEWVATIIYSGRGTYYRDAVKGRFTITRDNSTSTLYLELSSLRSEDTAVYYCARQSDDTYYYWGYFDYWGQGTMVTVSS
VL: B4 VL with S22N, Y31F, S33G, E61Q, V91I, S99D, Y100V, G106Q, V110L
modifications: synthon AAD on reduced interchain cysteines (sites not given)
[2]
  % Cell Viability at 50 nM: 1.8%
  Molt4 IC50: 0.091 nM

B6: CD98 (CL-huAb110)-AAD (antibody, human IgG1, kappa, L234A L235A, V domains shown)
VH: B5 VH with S54D, G55A
VL: B4 VL with S22N, Y31F, S33G, E61Q, V91I, Y100S, G106Q, V110L
modifications: synthon AAD on reduced interchain cysteines (sites not given)
[2]
  % Cell Viability at 50 nM: 1.5%
  Molt4 IC50: 0.074 nM

B7: CD98 (CL-huAb102)-LB (antibody, human IgG1, kappa, L234A L235A, V domains shown)
VH: B4 VH with Y56N, G57R
VL: B4 VL
modifications: synthon LB on reduced interchain cysteines (sites not given)
[2]
  % Cell Viability at 50 nM: 14.8%
  Molt4 IC50: 0.053 nM

B8: CD98 (CL-huAb104)-LB (antibody, human IgG1, kappa, L234A L235A, V domains shown)
VH: B4 VH
VL: B4 VL
modifications: synthon LB on reduced interchain cysteines (sites not given)
[2]
  % Cell Viability at 50 nM: 3.5%
  Molt4 IC50: 0.062 nM

B9: CD98 (CL-huAb110)- LB (antibody, human IgG1, kappa, L234A L235A, V domains shown)
VH: B5 VH with S54D, G55A
VL: B4 VL with S22N, Y31F, S33G, E61Q, V91I, Y100S, G106Q, V110L
modifications: synthon LB on reduced interchain cysteines (sites not given)
[2]
  % Cell Viability at 50 nM: 1.9%
  Molt4 IC50: 0.208 nM

B10: CD98 (CL-huAb102)-WD (antibody, human IgG1, kappa, L234A L235A, V domains shown)
VH: B4 VH with Y56N, G57R
VL: B4 VL
modifications: synthon WD on reduced interchain cysteines (sites not given)
[2]
  % Cell Viability at 50 nM: 14.3%
  Molt4 IC50: 0.109 nM

B11: CD98 (CL-huAb104)-WD (antibody, human IgG1, kappa, L234A L235A, V domains shown)
VH: B4 VH
VL: B4 VL
modifications: synthon WD on reduced interchain cysteines (sites not given)
[2]
  % Cell Viability at 50 nM: 16.4%
  Molt4 IC50: 0.067 nM

B12: CD98 (CL-huAb110)-WD (antibody, human IgG1, kappa, L234A L235A, V domains shown)
VH: B5 VH with S54D, G55A
VL: B4 VL with S22N, Y31F, S33G, E61Q, V91I, Y100S, G106Q, V110L
modifications: synthon WD on reduced interchain cysteines (sites not given)
[2]
  % Cell Viability at 50 nM: 10.7%
  Molt4 IC50: 0.226 nM

B13: CD98 (CL-huAb102)-ZT (antibody, human IgG1, kappa, L234A L235A, V domains shown)
VH: B4 VH with Y56N, G57R
VL: B4 VL
modifications: synthon ZT on reduced interchain cysteines (sites not given)
[2]
  % Cell Viability at 50 nM: 3.4%
  Molt4 IC50: 0.04 nM

B14: CD98 (CL-huAb104)-ZT (antibody, human IgG1, kappa, L234A L235A, V domains shown)
VH: B4 VH
VL: B4 VL
modifications: synthon ZT on reduced interchain cysteines (sites not given)
[2]
  % Cell Viability at 50 nM: 3.3%
  Molt4 IC50: 0.042 nM

B15: CD98 (CL-huAb108)-ZT (antibody, human IgG1, kappa, L234A L235A, V domains shown)
VH: B5 VH
VL: B4 VL with S22N, Y31F, S33G, E61Q, V91I, S99D, Y100V, G106Q, V110L
modifications: synthon ZT on reduced interchain cysteines (sites not given)
[2]
  % Cell Viability at 50 nM: 4.5%
  Molt4 IC50: 0.144 nM

B16: Ab6-CZ (Ab6 conjugated to Bcl-xL inhibitor synthon CZ) (antibody, V domains shown)
VH: QVQLKESGPGLAQPSQTLSLTCTVSGFSLSTYGVIWLRQPPGKGLEWMGVIWTNGNTNYNSTLKSRLSISRDTSESQVYLQMNSLQTEDTATYYCARHYYDGAYYYGYFDYWGQGVMVTVSS
VL: DIVMTQTPSSQAVSAGEKVTMSCKSSQSLLYSENKKNYLAWYQQKPGQSPKLLIYWASTRESGVPDRFIGSGSGTDFTLTISSVQAEDLAVYYCQQYYYFPYTFGAGTKLELK
[1]
  ADC potency, IC50 (nM), HCC38 growth inhibition: 0.438 nM
  ADC potency, IC50 (nM), Jurkat growth inhibition: 0.086 nM
  ADC potency, IC50 (nM), Molt-4 growth inhibition: 0.057 nM

B17: CD98 (CL-huAb110)-ZT (antibody, human IgG1, kappa, L234A L235A, V domains shown)
VH: B5 VH with S54D, G55A
VL: B4 VL with S22N, Y31F, S33G, E61Q, V91I, Y100S, G106Q, V110L
modifications: synthon ZT on reduced interchain cysteines (sites not given)
[2]
  % Cell Viability at 50 nM: 3.5%
  Molt4 IC50: 0.156 nM

B18: CD98 (CL-huAb102)-ZZ (antibody, human IgG1, kappa, L234A L235A, V domains shown)
VH: B4 VH with Y56N, G57R
VL: B4 VL
modifications: synthon ZZ on reduced interchain cysteines (sites not given)
[2]
  % Cell Viability at 50 nM: 6.3%
  Molt4 IC50: 0.072 nM

B19: CD98 (CL-huAb104)-ZZ (antibody, human IgG1, kappa, L234A L235A, V domains shown)
VH: B4 VH
VL: B4 VL
modifications: synthon ZZ on reduced interchain cysteines (sites not given)
[2]
  % Cell Viability at 50 nM: 6.5%
  Molt4 IC50: 0.061 nM

B20: CD98 (CL-huAb108-ZZ (antibody, human IgG1, kappa, L234A L235A, V domains shown)
VH: B5 VH
VL: B4 VL with S22N, Y31F, S33G, E61Q, V91I, S99D, Y100V, G106Q, V110L
modifications: synthon ZZ on reduced interchain cysteines (sites not given)
[2]
  % Cell Viability at 50 nM: 5.8%
  Molt4 IC50: 0.199 nM

B21: Ab7-CZ (Ab7 conjugated to Bcl-xL inhibitor synthon CZ) (antibody, V domains shown)
VH: B16 VH with A12V, L37V, T53A, E75K, Q81K, A103T
VL: B16 VL with S22N, A106P
[1]
  ADC potency, IC50 (nM), HCC38 growth inhibition: 1.15 nM
  ADC potency, IC50 (nM), Jurkat growth inhibition: 0.134 nM
  ADC potency, IC50 (nM), Molt-4 growth inhibition: 0.079 nM

B22: Ab8-CZ (Ab8 conjugated to Bcl-xL inhibitor synthon CZ) (antibody, V domains shown)
VH: EVQLVESGGGLVQPGRSLKLSCAASGFTFSDYAMAWVRQAPKKGLEWVASIIYDGRGTYYRDSVKGRFTISRDNAKSTLYLQMDSLRSEDTATYYCARQGDGTYYYWGYFDYWGQGVMVTVSS
VL: DIVMTQSPSSLAVSAGETVTINCKSSQSLLSSGNQKNYLAWYQQKPGQSPKLLIYWASTRQSGVPDRFIGSGSGTDFTLTINSVQAEDLAIYYCQQYYDTPYTFGAGTKLELK
[1]
  ADC potency, IC50 (nM), HCC38 growth inhibition: 0.963 nM
  ADC potency, IC50 (nM), Jurkat growth inhibition: 0.121 nM
  ADC potency, IC50 (nM), Molt-4 growth inhibition: 0.079 nM

B23: CD98 (CL-huAb102)-CZ (antibody, human IgG1, kappa, L234A L235A, V domains shown)
VH: B4 VH with Y56N, G57R
VL: B4 VL
modifications: synthon CZ on reduced interchain cysteines (sites not given)
[2]
  % Cell Viability at 50 nM: 1%
  Molt4 IC50: 0.015 nM

B24: CD98 (CL-huAb104)-CZ (antibody, human IgG1, kappa, L234A L235A, V domains shown)
VH: B4 VH
VL: B4 VL
modifications: synthon CZ on reduced interchain cysteines (sites not given)
[2]
  % Cell Viability at 50 nM: 0.9%
  Molt4 IC50: 0.023 nM

B25: CD98 (CL-huAb108)-CZ (antibody, human IgG1, kappa, L234A L235A, V domains shown)
VH: B5 VH
VL: B4 VL with S22N, Y31F, S33G, E61Q, V91I, S99D, Y100V, G106Q, V110L
modifications: synthon CZ on reduced interchain cysteines (sites not given)
[2]
  % Cell Viability at 50 nM: 1.1%
  Molt4 IC50: 0.068 nM
